For two substances, stoichiometry N results are on record in publication PMC9929470.

Test [1] deals with recombinant N1 (neuraminidase subtype 1 head domain of A/Brisbane/02/2018 (H1N1) fused to the tetrabrachion tetramerization domain) (not stated | influenza A virus A/Brisbane/02/2018 (H1N1)) (UniProt Q54436). Kind of test: SEC. In general terms: Size exclusion chromatography separates by hydrodynamic size, large species first.
The target is the same in test [2]. Kind of test: SEC-MALS; AdvanceBio SEC 300-Å column connected to a DAWN8 detector, 0.3 ml/min, PBS pH 7.2.
Test [3] addresses recombinant N2 (neuraminidase subtype 2 head domain of A/Kansas/14/2017 (H3N2) fused to the tetrabrachion tetramerization domain) (not stated | influenza A virus A/Kansas/14/2017 (H3N2)) (UniProt Q54436). Kind of test: SEC.
Test [4] has the same target. Kind of test: SEC-MALS; AdvanceBio SEC 300-Å column connected to a DAWN8 detector, 0.3 ml/min, PBS pH 7.2.

The stoichiometry N is a count of units in the complex or per binding partner. Consider “recombinant N1 (neuraminidase subtype 1 head domain of A/Brisbane/02/2018 (H1N1) fused to the tetrabrachion tetramerization domain) (from UniProt Q54436 1238-1286) (enzyme)”, for which the stoichiometry N in test [1] and in test [2] was 4 throughout.
Turning to “recombinant N2 (neuraminidase subtype 2 head domain of A/Kansas/14/2017 (H3N2) fused to the tetrabrachion tetramerization domain) (from UniProt Q54436 1238-1286) (enzyme)”, the stoichiometry N in test [3] and in test [4] was 4 throughout.
